Experiment [1] addresses T1, human FGFR3b expressed with a C-terminal myc-myc-hexahistidine tag (hFGFR3b.mmH) (human).
T1 construct: also called REGN3152; monomeric human FGFR3b
T1 chain: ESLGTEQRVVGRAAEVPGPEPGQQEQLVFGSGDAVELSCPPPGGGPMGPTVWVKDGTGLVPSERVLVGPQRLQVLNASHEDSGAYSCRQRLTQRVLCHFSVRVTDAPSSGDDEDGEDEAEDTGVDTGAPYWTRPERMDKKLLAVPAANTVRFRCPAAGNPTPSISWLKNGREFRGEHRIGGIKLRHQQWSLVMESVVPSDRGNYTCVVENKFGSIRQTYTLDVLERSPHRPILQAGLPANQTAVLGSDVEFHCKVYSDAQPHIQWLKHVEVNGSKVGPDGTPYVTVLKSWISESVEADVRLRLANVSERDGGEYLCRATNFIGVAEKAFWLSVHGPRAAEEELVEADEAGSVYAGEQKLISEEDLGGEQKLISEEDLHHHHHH
In words: SPR Biacore, mAb captured on anti-hFc, 25C. As to the method:
(§1) The CM5 Biacore sensor surface was derivatized by amine coupling with a monoclonal mouse anti-human Fc monoclonal antibody (REGN2567). […] Antibody-reagent association was monitored for 5 minutes while dissociation in HBS-EP running buffer was monitored for 10 minutes. At the end of each cycle, the anti-FGFR3 antibody capture surface was regenerated using a 10 sec injection of 20 mM phosphoric acid. All binding kinetics experiments were performed at 25° C.
(§2) The specific SPR-Biacore sensorgrams were obtained by a double referencing procedure. The double referencing was performed by first subtracting the signal of each injection over a reference surface (anti-hFc) from the signal over the experimental surface (anti-hFc-captured anti-FGFR3 antibodies) thereby removing contributions from refractive index changes. In addition, running buffer injections were performed to allow subtraction of the signal changes resulting from the dissociation of captured antibodies from the coupled anti-hFc surface. Kinetic association (kₐ) and dissociation (kd) rate constants were determined by fitting the real-time sensorgrams to a 1:1 binding model using Scrubber v2.0c curve fitting software.
Background: In SPR one partner is held on a chip, and binding of the other changes the refractive index at the surface.

Experiment [2] concerns the target T2, human FGFR3b expressed with a C-terminal murine Fc tag (hFGFR3b.mFc) (human).
T2 construct: called dimeric; also called REGN3153; dimeric human FGFR3b
T2 chain: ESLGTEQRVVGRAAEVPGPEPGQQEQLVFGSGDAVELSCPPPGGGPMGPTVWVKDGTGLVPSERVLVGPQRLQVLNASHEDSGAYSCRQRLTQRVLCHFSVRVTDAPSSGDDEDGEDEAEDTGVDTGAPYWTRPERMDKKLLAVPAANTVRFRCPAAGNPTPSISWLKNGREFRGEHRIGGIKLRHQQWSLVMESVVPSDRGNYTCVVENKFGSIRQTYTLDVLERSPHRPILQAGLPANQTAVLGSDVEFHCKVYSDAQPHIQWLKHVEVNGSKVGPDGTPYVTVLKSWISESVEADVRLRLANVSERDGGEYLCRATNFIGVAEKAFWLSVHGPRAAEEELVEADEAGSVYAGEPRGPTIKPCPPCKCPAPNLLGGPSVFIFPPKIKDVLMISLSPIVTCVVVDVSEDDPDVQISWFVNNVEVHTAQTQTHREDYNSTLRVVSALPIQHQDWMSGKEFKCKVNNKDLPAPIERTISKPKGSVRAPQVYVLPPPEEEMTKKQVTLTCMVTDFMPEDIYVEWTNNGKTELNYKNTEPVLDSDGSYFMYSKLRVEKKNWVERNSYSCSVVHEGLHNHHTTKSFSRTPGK
In words: SPR Biacore, mAb captured on anti-hFc, 25C. The method, then: as §1, §2

Experiment [3] deals with T3, human FGFR3c expressed with a C-terminal myc-myc-hexahistidine tag (hFGFR3c.mmH) (human, UniProt P22607 23-375).
T3 construct: also called REGN3155; monomeric human FGFR3c
In words: SPR Biacore, mAb captured on anti-hFc, 25C. The method, then:
as §1, §2

Experiment [4] has as its target T4, cynomolgus FGFR3b expressed with a C-terminal myc-myc-hexahistidine tag (mfFGFR3b.mmH) (cynomolgus).
T4 construct: also called REGN3521; mf FGFR3b ecto (R357G)(E23-G377;R357G).mmH
T4 chain: T1 chain with A13V, P17S, G22S, T57A, R94L, R171K
In words: SPR Biacore, mAb captured on anti-hFc, 25C. As to the method: as §1, §2

Experiment [5] deals with T5, murine FGFR3b expressed with a C-terminal myc-myc-hexahistidine tag (mFGFR3b.mmH) (murine).
T5 construct: also called REGN3215; monomeric murine FGFR3b
T5 chain: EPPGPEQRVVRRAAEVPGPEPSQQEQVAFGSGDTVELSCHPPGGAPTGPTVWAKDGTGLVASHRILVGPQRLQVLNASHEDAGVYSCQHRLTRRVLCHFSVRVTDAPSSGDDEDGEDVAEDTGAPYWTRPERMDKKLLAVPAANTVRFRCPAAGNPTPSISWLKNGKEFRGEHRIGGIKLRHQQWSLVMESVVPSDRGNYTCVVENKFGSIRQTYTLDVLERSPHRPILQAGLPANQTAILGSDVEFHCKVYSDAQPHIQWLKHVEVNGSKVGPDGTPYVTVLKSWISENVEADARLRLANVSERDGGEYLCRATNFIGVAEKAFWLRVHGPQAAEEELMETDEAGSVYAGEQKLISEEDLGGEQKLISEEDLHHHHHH
In words: SPR Biacore, mAb captured on anti-hFc, 25C. The method, then: as §1, §2

Experiment [6] has as its target T2, human FGFR3b expressed with a …. Nature of the experiment: competition ELISA: 4 nM hFGFR3b-mFc binding to plate-coated hFGF acidic. As to the method: The fixed concentration of hFGFR3b or hFGFR3c proteins was selected to be near the concentration that generated 50% of the maximal binding (EC₅₀ value) to plate-adhered hFGF acidic or hFGF basic protein. […] The plates were then developed using TMB substrate solution (BD Biosciences) according to the manufacturer's recommended procedure and absorbance at 450 nm was measured on a Victor X5 plate reader.
Binding data were analyzed using a sigmoidal (four-parameter logistic) dose-response model using GraphPad Prism software. […] Percent blocking of FGFR3 antibody at a given concentration was calculated based on the formula shown below.
The ability of anti-FGFR3 antibodies to block human FGFR3b binding to hFGF acidic protein or hFGFR3c binding to hFGF acidic or hFGF basic proteins was evaluated using a sandwich ELISA-based blocking assay.
On the technique in general: ELISA stands for enzyme-linked immunosorbent assay.

Results on three molecules are retold here after patent US20240158515A1 (Regeneron, published 2024).

Numbering of substitutions follows the chain as printed.

B1: H4H30095P2 (antibody, human IgG4 S228P, kappa, V domains shown)
VH: QVQLVQSGVEVKKPGASVKVSCKASGYTFKFYGISWVRQAPGQGLEWMGWISVYNGKTKYAQKLQGRVTMTTDTSTSTAYMELRSLRSDDTAVYFCARDGDYESSGYPFDYWGQGTLVTVSS
VL: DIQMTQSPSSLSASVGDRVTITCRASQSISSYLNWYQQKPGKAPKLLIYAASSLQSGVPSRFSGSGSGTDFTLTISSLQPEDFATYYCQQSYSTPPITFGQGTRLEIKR
As for B1, in experiment [1], the “90 nM hFGFR3b.mmH Bind (RU)” value was determined as 239 RU, the Kd stood at 7.16 nM, the off-rate constant (koff) came to 0.005 s⁻¹ and the kon stood at 698000 M⁻¹ s⁻¹. For the same molecule, the “t½” value in experiment [1] was 2.3 min. Moreover, in experiment [2], the “30 nM hFGFR3b.mFc Bind (RU)” value was 405 RU, binding was put at a Kd of 0.114 nM, the koff was 9.88e-05 s⁻¹ and the on-rate constant (kon) came out at 867000 M⁻¹ s⁻¹. The “t½” value in experiment [2] is 117 min. Further, in experiment [3], the “90 nM hFGFR3c.mmH Bind (RU)” value was found to be 222 RU, the Kd was determined as 7.88 nM, the koff was found to be 0.00454 s⁻¹ and the kon amounted to 575000 M⁻¹ s⁻¹. For the same molecule, in experiment [3], the “t½” value was 2.5 min. In addition, in experiment [4], the “90 nM mfFGFR3b.mmH Bind (RU)” value was 206 RU, binding was characterised by a dissociation constant (Kd) of 8.29 nM, the koff was found to be 0.00437 s⁻¹ and the kon was found to be 527000 M⁻¹ s⁻¹. Moreover, the “t½” value in experiment [4] amounted to 2.6 min.

B2: H4H30105P2 (antibody, human IgG4 S228P, kappa, V domains shown)
VH: EVQLVQSGAEVKKPGESLKISCKGSGYSFTSYWIAWVRQMPGKGLEWMGIIYPGDSDTRYSPSFQGQVTMSADKSIRIAYLQWSSLKASDTAMYYCARLDYSGSWFDYWGQGTLVTVSS
VL: not shown
B2: in experiment [5], the “90 nM mFGFR3b.mmH Bind (RU)” value is 8.3 RU, the off-rate (koff) amounted to 0.00122 s⁻¹, the kon stood at 149000 M⁻¹ s⁻¹ and the “t½” value stood at 9.5 min. In addition, in experiment [1], the “90 nM hFGFR3b.mmH Bind (RU)” value came out at 158 RU, the koff is 0.00511 s⁻¹, the kon was found to be 438000 M⁻¹ s⁻¹ and the “t½” value was found to be 2.3 min. In experiment [3], the “90 nM hFGFR3c.mmH Bind (RU)” value amounted to 131 RU, the koff was 0.00652 s⁻¹, the kon was found to be 387000 M⁻¹ s⁻¹ and the “t½” value worked out at 1.8 min. For the same molecule, in experiment [4], the “90 nM mfFGFR3b.mmH Bind (RU)” value amounted to 67.8 RU, binding was characterised by a dissociation constant (Kd) of 14.7 nM, the koff worked out at 0.00802 s⁻¹ and the kon stood at 547000 M⁻¹ s⁻¹. For the same molecule, in experiment [4], the “t½” value was found to be 1.4 min.

B3: H4H30093P2 (antibody, human IgG4 S228P, kappa, V domains shown)
VH: QVQLVESGGGLVKPGGSLRLSCAASGFTFNDYPMSWIRQAPGKGLEWVSYITSSSGSTIYYADSVKGRFTISRDNAKNSLYLQMNSLRAEDTAVYYCAREVVVATIGGYYGMDVWGQGTTVTVSS
VL: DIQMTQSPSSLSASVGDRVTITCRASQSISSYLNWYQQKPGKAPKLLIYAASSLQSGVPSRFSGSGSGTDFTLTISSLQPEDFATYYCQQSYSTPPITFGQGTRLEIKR
notes: HCVR 82, LCVR 90
Regarding B3, in experiment [6], the “% Blocking at 200 nM mAb” value is 91% and the IC50 is 2.5 nM. For the same molecule, in experiment [5], the “90 nM mFGFR3b.mmH Bind (RU)” value is 11.2 RU, the Kd was 70.9 nM, the dissociation rate constant (koff) stood at 0.00967 s⁻¹ and the kon was 136000 M⁻¹ s⁻¹. Besides, in experiment [5], the “t½” value came to 1.2 min. For the same molecule, in experiment [1], the “90 nM hFGFR3b.mmH Bind (RU)” value is 217 RU, the Kd amounted to 5.14 nM, the koff is 0.00209 s⁻¹ and the kon turned out to be 406000 M⁻¹ s⁻¹. In experiment [1], the “t½” value came to 5.5 min. In addition, in experiment [2], the “30 nM hFGFR3b.mFc Bind (RU)” value is 317 RU, binding was put at a Kd of 0.0265 nM, the dissociation rate constant (koff) was 1.55e-05 s⁻¹ and the kon was 585000 M⁻¹ s⁻¹. For the same molecule, in experiment [2], the “t½” value stood at 745 min. In addition, in experiment [3], the “90 nM hFGFR3c.mmH Bind (RU)” value was 182 RU, the Kd worked out at 9.2 nM, the koff came to 0.00334 s⁻¹ and the on-rate (kon) stood at 363000 M⁻¹ s⁻¹. For the same molecule, the “t½” value in experiment [3] was found to be 3.5 min. For the same molecule, in experiment [4], the binding result is on record as “no binding (tested: 90 nM)”.

A word on the Kd: it is the concentration at which binding is half-saturated. Read a high Kd as weaker binding. For orientation: koff means a measure of how fast the partners let go of each other. Read a low koff as slow dissociation. Usually kon stands for the rate constant with which the complex forms. Low values mean slow association, high ones fast association. The term t½ denotes how long it takes for the measured level to halve. A lower t½ goes with fast loss. Broadly, the IC50 is the midpoint of a concentration-inhibition curve.
